Reference: patent publication US20240093159A1 (UNIVERSITY OF DUNDEE, published 2024)

T1: Human IL17RA protein (SinoBiological) (human, UniProt Q96F46 33-320)
T1 construct: Coated on ELISA plates at 0.25 ug/well; also called IL17RA receptor
T1 sequence (looked up): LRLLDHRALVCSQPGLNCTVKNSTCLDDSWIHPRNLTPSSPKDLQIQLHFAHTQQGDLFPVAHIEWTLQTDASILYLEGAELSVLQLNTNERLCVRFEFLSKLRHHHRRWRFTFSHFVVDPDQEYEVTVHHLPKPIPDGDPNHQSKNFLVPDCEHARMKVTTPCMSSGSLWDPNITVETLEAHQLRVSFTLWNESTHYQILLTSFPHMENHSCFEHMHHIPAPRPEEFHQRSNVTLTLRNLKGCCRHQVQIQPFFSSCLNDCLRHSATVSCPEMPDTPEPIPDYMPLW

T2: commercially sourced Im7 linked to Sepharose (UniProt Q03708 1-87, linked to Sepharose resin)
T2 construct: also called Im7-Sepharose; Im7-agarose
T2 sequence: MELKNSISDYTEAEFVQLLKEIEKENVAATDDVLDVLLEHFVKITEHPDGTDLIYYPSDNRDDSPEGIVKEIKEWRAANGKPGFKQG


Tests used:
[1] = target: T1, Human IL17RA protein (SinoBiological); test: receptor binding ELISA, IL17RA coated at 0.25 ug/well
[2] = target: T2, commercially sourced Im7 linked to …; test: E. coli cytosol incubated with Im7-Sepharose, extensive washing, TEV release, SDS-PAGE

Row | Binder | binding result [1] | binding result [2]
1 | IL33 purified on Im7-Sepharose and released from ColE7 by TEV protease (ligand) GSSIQGTSLLTQSPASLSTYNDQSVSFVLENGCYVINVDKSGKDQEQDQVLLRYYKSPCPASQSGDGVDGKKLMVNMSPIKDTDIWLHANDKDYSVELQRGDVSPPEQAFFVLHKKSSDFVSFECKNLPGTYIGVKDNQLALVEEKDESCNNIMFKLSKI | no binding | 
2 | ColE7-IL33 fusion (Colicin E7 catalytic domain, linker, TEV site, murine IL-33 C-terminal fragment) (other, also called ColE7-1L33; ColicinE7-IL33) ESKRNKPGKATGKGKPVNNKWLNNAGKDLGSPVPDRIANKLRDKEFKSFDDFRKKFWEEVSKDPELSKQFSRNNNDRMKVGKAPKTRTQDVSGKATSFALHHEKPISQNGGVYDMDNISVVTPKRAIDIHRGKSGGGSSGSGENLYFQGSSIQGTSLLTQSPASLSTYNDQSVSFVLENGCYVINVDKSGKDQEQDQVLLRYYKSPCPASQSGDGVDGKKLMVNMSPIKDTDIWLHANDKDYSVELQRGDVSPPEQAFFVLHKKSSDFVSFECKNLPGTYIGVKDNQLALVEEKDESCNNIMFKLSKI |  | binds
